Data taken from the Human Domainome abundance scans (Beltran et al. 2025).
± gives the uncertainty stated by the source.

B1: Intersectin-1, residues 1156 to 1213; numbered along this chain, Q15811 (parent)
chain: AVCQVIGMYDYTAQNDDELAFNKGQIINVLNKEDPDWWKGEVNGQVGLFPSNYVKLTT
B2: POU domain, class 5, transcription factor 1, residues 134 to 212; numbered along this chain, Q01860 (parent)
chain: EESQDIKALQKELEQFAKLLKQKRITLGYTQADVGLTLGVLFGKVFSQTTICRFEALQLSFKNMCKLRPLLQKWVEEAD

Variants of: B1
Assay: abundance fitness (aPCA) (normalised: wild type 0, dead -1); higher = more abundant; growth selection in yeast, the domain comes from the species named
Settings: Homo sapiens

Variant	abundance fitness
T58G	0.053 ± 0.22
T58R	0.062 ± 0.26
T58S	-0.144 ± 0.16
T58N	-0.233 ± 0.26
T58V	-0.113 ± 0.32
T58I	-0.587 ± 0.4
T58L	-0.187 ± 0.41
T58A	-0.315 ± 0.16
T58P	-0.09 ± 0.2
Y53V	-0.343 ± 0.089
Y53Q	-0.224 ± 0.14
Y53K	0.085 ± 0.14
Y53N	-0.54 ± 0.25
Y53F	-0.208 ± 0.15
Y53S	-0.426 ± 0.1
Y53P	-0.726 ± 0.17
Y53G	-0.601 ± 0.086
Y53H	-0.26 ± 0.2
Y53M	0.12 ± 0.15
Y53L	-0.155 ± 0.086
Y53R	-0.068 ± 0.078
Y53W	-0.255 ± 0.11
Y53D	-0.834 ± 0.18
Y53I	-0.239 ± 0.28
Y53T	-0.11 ± 0.12

Variant	abundance fitness
Y53E	-0.711 ± 0.2
Y53C	0.034 ± 0.1
Y53A	0.043 ± 0.093
V54Y	-0.766 ± 0.26
V54G	-0.836 ± 0.12
V54C	-0.367 ± 0.12
V54W	-0.762 ± 0.14
V54Q	-0.904 ± 0.22
V54R	-0.684 ± 0.094
V54D	-0.943 ± 0.31
V54K	-0.906 ± 0.24
V54E	-0.931 ± 0.33
V54F	-0.806 ± 0.25
V54H	-0.767 ± 0.23
V54P	-0.842 ± 0.17
V54M	-0.755 ± 0.27
V54L	-0.854 ± 0.14
V54S	-0.874 ± 0.12
V54T	-0.065 ± 0.14
V54A	-0.546 ± 0.11
V54N	-0.758 ± 0.21
V54I	-0.773 ± 0.16
N52A	-0.183 ± 0.1
N52G	-0.253 ± 0.076
N52F	-0.784 ± 0.33

Variant	abundance fitness
N52P	-0.544 ± 0.18
N52M	-0.097 ± 0.14
N52Q	-0.147 ± 0.13
N52R	0.022 ± 0.083
N52Y	-0.291 ± 0.21
N52C	-0.251 ± 0.12
N52S	-0.075 ± 0.097
N52I	-0.364 ± 0.24
N52V	-0.439 ± 0.11
N52L	-0.561 ± 0.12
N52H	-0.469 ± 0.15
N52W	-0.446 ± 0.14
N52T	-0.067 ± 0.13
N52D	-0.079 ± 0.14
N52E	-0.201 ± 0.11
S51C	-0.504 ± 0.14
S51T	-0.312 ± 0.14
S51F	-0.942 ± 0.2
S51V	-0.181 ± 0.095
S51Q	-0.452 ± 0.14
S51P	-0.235 ± 0.12
S51R	-0.053 ± 0.093
S51G	-0.87 ± 0.12
S51N	-0.506 ± 0.19
S51W	-0.877 ± 0.17

Variant	abundance fitness
S51Y	-0.927 ± 0.28
S51L	-0.867 ± 0.17
S51K	-0.09 ± 0.15
S51H	-0.517 ± 0.22
S51E	-1.02 ± 0.23
S51A	-0.029 ± 0.089
S51I	-0.751 ± 0.31
L56E	0.005 ± 0.13
L56N	-0.149 ± 0.22
L56S	0.083 ± 0.087
L56G	-0.102 ± 0.079
L56I	0.069 ± 0.2
L56Q	-0.151 ± 0.11
L56D	-0.106 ± 0.15
L56T	0.081 ± 0.14
L56A	0.08 ± 0.093
L56R	-0.341 ± 0.083
L56V	0.006 ± 0.094
L56P	-0.121 ± 0.14
L56M	-0.148 ± 0.12
L56F	-0.124 ± 0.16
L56H	-0.334 ± 0.24
L56W	-0.405 ± 0.11
L56C	0.266 ± 0.13
L56Y	-0.168 ± 0.22

Variant	abundance fitness
P50D	-0.507 ± 0.19
P50K	-0.547 ± 0.21
P50M	-0.799 ± 0.22
P50W	-0.713 ± 0.14
P50R	-0.323 ± 0.087
P50Q	-1.06 ± 0.26
P50I	-0.671 ± 0.35
P50E	-0.847 ± 0.25
P50V	-0.929 ± 0.18
P50F	-0.459 ± 0.2
P50S	-0.954 ± 0.14
P50T	-0.773 ± 0.19
P50H	-0.973 ± 0.3
P50L	-0.873 ± 0.14
P50Y	-0.932 ± 0.27
P50N	-0.71 ± 0.25
K55C	-0.098 ± 0.15
K55I	-0.325 ± 0.21
K55H	-0.431 ± 0.18
K55N	-0.456 ± 0.17
K55F	-0.614 ± 0.17
K55W	-0.678 ± 0.17
K55M	0.024 ± 0.16
K55D	-0.513 ± 0.15
K55S	-0.004 ± 0.084

Variant	abundance fitness
K55L	-0.318 ± 0.089
K55P	-0.797 ± 0.16
K55A	-0.146 ± 0.1
K55R	0.067 ± 0.084
K55Q	-0.177 ± 0.16
K55Y	-0.427 ± 0.15
K55T	-0.225 ± 0.11
T57I	-0.13 ± 0.14
T57A	-0.059 ± 0.083
T57E	-0.519 ± 0.16
T57R	-0.131 ± 0.078
T57L	-0.116 ± 0.11
T57Q	0.028 ± 0.15
T57K	-0.024 ± 0.21
T57F	0.086 ± 0.15
T57D	-0.055 ± 0.15
T57W	-0.167 ± 0.12
T57C	-0.115 ± 0.12
T57S	-0.174 ± 0.09
T57N	-0.028 ± 0.17
T57M	-0.009 ± 0.15
T57V	-0.06 ± 0.089
T57H	-0.003 ± 0.14
T57Y	-0.063 ± 0.15

Variants of: B2
Assay: as above
Settings: Homo sapiens

Variant	abundance fitness
L38V	-0.52 ± 0.14
L38P	-0.662 ± 0.41
L38A	-0.275 ± 0.14
I6G	-0.122 ± 0.077
I6N	-0.082 ± 0.23
I6Q	0.063 ± 0.14
I6A	0.005 ± 0.085
I6D	0.122 ± 0.16
L13S	-0.743 ± 0.25
L13R	-1.06 ± 0.35
A78S	-0.13 ± 0.16
A78R	-0.289 ± 0.13
A78G	-0.304 ± 0.12
L9W	-0.254 ± 0.087
L9G	-0.127 ± 0.07
L9A	-0.066 ± 0.088
L9Q	0.106 ± 0.12
L9C	-0.123 ± 0.13
